Reference: publication PMC12205877

Tests used:
[1] = target: T1, TaBZR2 (Triticum aestivum (ZM1860), UniProt A0A3B6FJ07 1-354); assay: EMSA
T1 sequence: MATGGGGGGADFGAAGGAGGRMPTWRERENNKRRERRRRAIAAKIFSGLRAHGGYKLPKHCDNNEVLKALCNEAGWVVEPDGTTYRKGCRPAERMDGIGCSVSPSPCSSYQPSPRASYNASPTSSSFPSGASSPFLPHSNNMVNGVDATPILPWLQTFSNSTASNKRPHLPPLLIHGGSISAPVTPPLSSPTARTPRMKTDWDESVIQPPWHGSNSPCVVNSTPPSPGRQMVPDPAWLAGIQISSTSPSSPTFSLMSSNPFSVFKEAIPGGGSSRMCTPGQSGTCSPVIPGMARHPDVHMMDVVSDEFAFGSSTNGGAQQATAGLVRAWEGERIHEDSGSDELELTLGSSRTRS

[2] = target: T1, TaBZR2; assay: competition
[3] = target: T1, TaBZR2; assay: competition; remark: listed apart in the source

B1: TaHSP21 promoter E-box probe (WT) (dsDNA)
DNA 1: AAGCACATATGTGTTGAAACAAGTGCAAAATGACAAGTGAGGGC
DNA 2: GCCCTCACTTGTCATTTTGCACTTGTTTCAACACATATGTGCTT
binding result [1]: binds

B2: TaHSP21 promoter mutated E-box probe (dsDNA)
DNA 1: AAGCATGCGCATGTTGAAATGGACACAAAATGATGGACAAGGGC
DNA 2: GCCCTTGTCCATCATTTTGTGTCCATTTCAACATGCGCATGCTT
binding result [2]: no binding

B3: TaHSFb2a promoter E-box probe (WT) (dsDNA)
DNA 1: CCGTTTCTAGAAACCTCGCCACGTGGCCGACTAGAAAGGATCG
DNA 2: CGATCCTTTCTAGTCGGCCACGTGGCGAGGTTTCTAGAAACGG
binding result [1]: binds

B4: TaHSFb2a promoter mutated E-box probe (dsDNA)
DNA 1: CCGTTTCTAGAAACCTCGCTGTACAGCCGACTAGAAAGGATCG
DNA 2: CGATCCTTTCTAGTCGGCTGTACAGCGAGGTTTCTAGAAACGG
binding result [3]: no binding
